Results published in patent publication US20150098933.

Columns and labels:
[1] = biological target: T1, full-length rhLAL produced in HEK293 cells
T1 chain: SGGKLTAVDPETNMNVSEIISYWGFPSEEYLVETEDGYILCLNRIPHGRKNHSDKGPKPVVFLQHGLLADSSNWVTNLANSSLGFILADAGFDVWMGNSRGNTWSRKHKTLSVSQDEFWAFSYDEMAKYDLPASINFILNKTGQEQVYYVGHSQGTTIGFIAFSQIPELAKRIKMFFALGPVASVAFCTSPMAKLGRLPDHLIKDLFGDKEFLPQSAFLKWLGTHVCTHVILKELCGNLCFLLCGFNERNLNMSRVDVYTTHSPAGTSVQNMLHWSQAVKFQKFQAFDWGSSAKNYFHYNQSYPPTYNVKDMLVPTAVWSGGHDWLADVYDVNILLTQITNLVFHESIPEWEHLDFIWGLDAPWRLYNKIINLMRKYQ

[2] = biological target: T2, ekLAL (rhLAL containing the FLAG affinity and ek cleavage site, designed to give TLAL-G77), produced in HEK293 cells
T2 chain: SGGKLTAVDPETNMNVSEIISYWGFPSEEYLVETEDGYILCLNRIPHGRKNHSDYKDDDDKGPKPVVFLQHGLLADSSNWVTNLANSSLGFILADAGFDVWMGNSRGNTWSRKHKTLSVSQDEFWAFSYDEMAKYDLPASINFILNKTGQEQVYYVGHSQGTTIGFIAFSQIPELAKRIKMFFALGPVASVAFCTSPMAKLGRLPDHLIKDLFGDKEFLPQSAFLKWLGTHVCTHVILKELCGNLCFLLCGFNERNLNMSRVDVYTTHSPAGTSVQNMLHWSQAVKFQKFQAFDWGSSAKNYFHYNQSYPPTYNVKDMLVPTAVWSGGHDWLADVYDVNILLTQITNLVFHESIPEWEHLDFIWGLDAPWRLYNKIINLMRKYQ

[3] = biological target: T3, ekLAL (rhLAL containing the FLAG affinity and ek cleavage site, designed to give TLAL-K76), produced in HEK293 cells
T3 chain: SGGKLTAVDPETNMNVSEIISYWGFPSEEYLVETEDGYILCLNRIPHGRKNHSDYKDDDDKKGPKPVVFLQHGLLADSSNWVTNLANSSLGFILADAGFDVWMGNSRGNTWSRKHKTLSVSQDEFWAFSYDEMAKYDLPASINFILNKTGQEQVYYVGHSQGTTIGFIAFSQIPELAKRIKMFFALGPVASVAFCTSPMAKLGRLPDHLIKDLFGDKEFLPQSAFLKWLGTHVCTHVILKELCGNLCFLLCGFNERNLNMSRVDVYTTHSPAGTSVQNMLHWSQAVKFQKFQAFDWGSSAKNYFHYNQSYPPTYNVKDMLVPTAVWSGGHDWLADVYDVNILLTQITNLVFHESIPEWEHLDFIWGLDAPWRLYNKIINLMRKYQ

[4] = biological target: T4, rhLAL protein produced from transgenic chicken
T4 chain: T1 chain

B1: bovine enterokinase (EC 3.4.21.9) (protein)
chain: IVGGSDSREGAWPWVVALYFDDQQVCGASLVSRDWLVSAAHCVYGRNMEPSKWKAVLGLHMASNLTSPQIETRLIDQIVINPHYNKRRKNNDIAMMHLEMKVNYTDYIQPICLPEENQVFPPGRICSIAGWGALIYQGSTADVLQEADVPLLSNEKCQQQMPEYNITENMVCAGYEAGGVDSCQGDSGGPLMCQENNRWLLAGVTSFGYQCALPNRPGVYARVPRFTEWIQSFLH
proteolytic cleavage (molecular weight before and after ek digestion) [1]: non-specific ek cleavage did not occur during the digestion reaction | proteolytic cleavage (ek digestion, 6 days at room temperature, SDS-PAGE) [2]: approximately 50% cleavage into TLAL-G77 | proteolytic cleavage (ek digestion, 6 days at room temperature) [3]: >70% cleavage into TLAL-K76 | proteolytic cleavage (molecular weight before and after ek digestion) [4]: non-specific ek cleavage did not occur during the digestion reaction
